Results reported in the supplement of paper PMC10724198.
± gives the standard deviation of the averaged measurements.

What was measured:
Saccharomyces cerevisiae [1] = experiment: protein stability index of tFT-peptide fusion (C-terminal peptide) (PSI (0-1 scale)); higher = more stable (slower turnover)
Method: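 MPS profiling in S. cerevisiae of the tFT-X12 degron library: putative degron peptides plus stable controls, 12 aa, fused to the C-terminus of a sfGFP-mCherry timer. Cells are FACS-sorted into 8 mCherry/sfGFP bins and deep-sequenced. PSI runs from 0 (unstable) to 1 (stable). Backgrounds are wild type, das1Δ and doa10Δ at 30 °C, and wild type, das1Δ, cdc34-1 and cdc53-1 at 37 °C; 2-3 technical replicates each.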

Saccharomyces cerevisiae [2] = experiment: as above; settings: genetic background: wild type; temperature: 30 C
[3] = genetic background: cdc34-1, temperature: 37 C
[4] = genetic background: cdc53-1, temperature: 37 C
[5] = genetic background: das1 deletion, temperature: 30 C
[6] = genetic background: das1 deletion, temperature: 37 C
[7] = genetic background: doa10 deletion, temperature: 30 C
[8] = genetic background: wild type, temperature: 30 C
[9] = genetic background: wild type, temperature: 37 C
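Also: PSI is a weighted mean of sequencing reads over stability bins, variants kept only with over 10 reads, mCherry proximal and sfGFP distal, peptide attached via GGGS linker.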

Sequence	protein stability index (Saccharomyces cerevisiae [1]; [3])	protein stability index (Saccharomyces cerevisiae [1]; [4])	protein stability index (Saccharomyces cerevisiae [1]; [5])	protein stability index (Saccharomyces cerevisiae [1]; [6])	protein stability index (Saccharomyces cerevisiae [1]; [7])	protein stability index (Saccharomyces cerevisiae [1]; [8])	protein stability index (Saccharomyces cerevisiae [1]; [9])	protein stability index (Saccharomyces cerevisiae [2])
SHGKDVLNKINS	0.608 ± 0.019	0.763 ± 0.045	0.633 ± 0.025	0.72 ± 0.033	0.146 ± 0.0078	0.17 ± 0.013	0.23 ± 0.036	0.319 ± 0.077
SHTRPPVTAPLH	0.689 ± 0.026	0.7142 ± 0.0027	0.646 ± 0.0068	0.72895 ± 0.00039	0.668 ± 0.033	0.654 ± 0.014	0.695 ± 0.0075	0.7165 ± 0.0055
SIFSIFFLVRNF	0.4535 ± 0.0038	0.551 ± 0.029	0.436 ± 0.037	0.59 ± 0.023	0.117 ± 0.0077	0.12 ± 0.039	0.195 ± 0.028	0.217 ± 0.0043
SIFSIRRQISFS	0.662 ± 0.0077	0.743 ± 0.009	0.653 ± 0.017	0.724 ± 0.012	0.327 ± 0.0085	0.346 ± 0.014	0.5729 ± 0.0022	0.418 ± 0.015
SILVLGRSVGVG	0.436 ± 0.026	0.4817 ± 0.00055	0.44 ± 0.027	0.521 ± 0.023	0.451 ± 0.0099	0.442 ± 0.01	0.49 ± 0.018	0.519 ± 0.07
SIQMNCILLLVI	0.211 ± 0.041	0.224 ± 0.021	0.213 ± 0.026	0.339 ± 0.012	0.188 ± 0.032	0.186 ± 0.024	0.299 ± 0.028	0.298 ± 0.058
SKPFPRHIFSLH	0.674 ± 0.022	0.737 ± 0.027	0.663 ± 0.026	0.7348 ± 0.0039	0.481 ± 0.03	0.4981 ± 0.0046	0.644 ± 0.012	0.503 ± 0.046
SLCWSYVWVSCP	0.264 ± 0.035	0.302 ± 0.007	0.247 ± 0.024	0.375 ± 0.0093	0.21 ± 0.0079	0.241 ± 0.022	0.343 ± 0.0047	0.334 ± 0.018
SLFERLSPVLCF	0.249 ± 0.037	0.2784 ± 0.0027	0.23 ± 0.024	0.3548 ± 0.00059	0.214 ± 0.008	0.224 ± 0.017	0.30185 ± 0.00011	0.308 ± 0.011
SLFVLLVSALLH	0.173 ± 0.029	0.32 ± 0.025	0.212 ± 0.025	0.38251 ± 0.0002	0.18 ± 0.0094	0.194 ± 0.033	0.328 ± 0.011	0.345 ± 0.02
SLGRYVSFLFVV	0.433 ± 0.02	0.6623 ± 0.0014	0.565 ± 0.024	0.668 ± 0.024	0.106 ± 0.0061	0.0996 ± 0.016	0.153 ± 0.019	0.202 ± 0.004
SLLSELILVGVS	0.394 ± 0.0081	0.409 ± 0.0044	0.284 ± 0.035	0.465 ± 0.0089	0.229 ± 0.011	0.304 ± 0.018	0.4308 ± 0.0017	0.406 ± 0.021
SLLWLYSAFVWY	0.302 ± 0.012	0.409 ± 0.011	0.347 ± 0.032	0.503 ± 0.016	0.188 ± 0.027	0.186 ± 0.023	0.386 ± 0.069	0.324 ± 0.05
SLRCILISTRVK	0.541 ± 0.02	0.601 ± 0.054	0.331 ± 0.046	0.563 ± 0.0091	0.317 ± 0.043	0.348 ± 0.021	0.531 ± 0.018	0.437 ± 0.087
SLVFCYSLFVFI	0.342 ± 0.08	0.464 ± 0.0058	0.381 ± 0.039	0.472 ± 0.012	0.368 ± 0.044	0.347 ± 0.04	0.444 ± 0.028	0.402 ± 0.017
SLYSFRCFFVLF	0.35 ± 0.027	0.461 ± 0.022	0.408 ± 0.022	0.51 ± 0.019	0.182 ± 0.0065	0.17 ± 0.012	0.235 ± 0.0058	0.263 ± 0.032
SPKFMCSLSCWW	0.714 ± 0.026	0.77647 ± 0.00063	0.685 ± 0.071	0.7527 ± 0.006	0.6577 ± 0.0042	0.665 ± 0.014	0.744 ± 0.021	0.732 ± 0.011
SPLLLIIFRSLC	0.505 ± 0.096	0.558 ± 0.0093	0.436 ± 0.039	0.623 ± 0.025	0.107 ± 0.0011	0.119 ± 0.0077	0.183 ± 0.019	0.18 ± 0.038
SREPPTSTSSRH	0.6388 ± 0.0031	0.709 ± 0.032	0.685 ± 0.012	0.669 ± 0.016	0.696 ± 0.025	0.703 ± 0.011	0.679 ± 0.0072	0.519 ± 0.13
SRFPARCLLCCW	0.531 ± 0.029	0.52 ± 0.021	0.454 ± 0.036	0.583 ± 0.017	0.4309 ± 0.002	0.449 ± 0.018	0.546 ± 0.007	0.501 ± 0.031
SRMIPSAFLLVI	0.589 ± 0.016	0.64 ± 0.012	0.507 ± 0.016	0.627 ± 0.012	0.348 ± 0.012	0.371 ± 0.02	0.513 ± 0.011	0.442 ± 0.01
SSAQKVMELQIV	0.664 ± 0.011	0.7179 ± 0.0062	0.648 ± 0.018	0.7361 ± 0.0023	0.223 ± 0.0048	0.257 ± 0.042	0.467 ± 0.035	0.404 ± 0.011
SSLGILHWRLHS	0.587 ± 0.038	0.709 ± 0.019	0.646 ± 0.011	0.7347 ± 0.0067	0.122 ± 0.022	0.14 ± 0.017	0.259 ± 0.027	0.224 ± 0.0078
SVAWFIYVARSI	0.529 ± 0.023	0.543 ± 0.072	0.482 ± 0.017	0.611 ± 0.011	0.282 ± 0.0042	0.329 ± 0.011	0.5224 ± 0.0022	0.471 ± 0.038
SVCCSLLAVASP	0.311 ± 0.035	0.355 ± 0.016	0.364 ± 0.022	0.323 ± 0.016	0.392 ± 0.029	0.384 ± 0.027	0.29 ± 0.0066	0.3666 ± 0.0026
SVFFALFLRCTP	0.26 ± 0.058	0.229 ± 0.055	0.34 ± 0.031	0.442 ± 0.005	0.43 ± 0.026	0.323 ± 0.024	0.405 ± 0.02	0.359 ± 0.05
SVGVVWVLSVEG	0.444 ± 0.042	0.517 ± 0.015	0.33 ± 0.031	0.5415 ± 0.0018	0.308 ± 0.0081	0.343 ± 0.018	0.503 ± 0.0036	0.454 ± 0.0074
SVTFVVYFISGG	0.522 ± 0.025	0.608 ± 0.023	0.409 ± 0.022	0.578 ± 0.028	0.426 ± 0.048	0.421 ± 0.022	0.548 ± 0.0076	0.513 ± 0.039
SWAILFVLEGFK	0.4673 ± 0.0029	0.548 ± 0.058	0.37 ± 0.021	0.561 ± 0.0092	0.318 ± 0.019	0.366 ± 0.011	0.5837 ± 0.004	0.477 ± 0.067
SWLLLVFPLSVC	0.0423 ± 0.012	0.0634 ± 0.005	0.167 ± 0.03	0.231 ± 0.0058	0.0982 ± 0.0044	0.0994 ± 0.021	0.113 ± 0.0063	0.191 ± 0.016
